# Substitutions are numbered along the chain they refer to.
# Assays:
# [1] = test system: T1, hADAR2-D (human ADAR2 deaminase domain) (human), P78563-2; test: EMSA; conditions: EMSA: 20 mM Tris-HCl pH 7-7.1, 6% glycerol, 0.5 mM DTT, 60 mM KCl, 20 mM NaCl, 0.1 mM 2-mercaptoethanol, 1.5 mM EDTA, 0.003% NP-40, 160 U/ml RNasin, 100 ug/ml …
# T1 sequence: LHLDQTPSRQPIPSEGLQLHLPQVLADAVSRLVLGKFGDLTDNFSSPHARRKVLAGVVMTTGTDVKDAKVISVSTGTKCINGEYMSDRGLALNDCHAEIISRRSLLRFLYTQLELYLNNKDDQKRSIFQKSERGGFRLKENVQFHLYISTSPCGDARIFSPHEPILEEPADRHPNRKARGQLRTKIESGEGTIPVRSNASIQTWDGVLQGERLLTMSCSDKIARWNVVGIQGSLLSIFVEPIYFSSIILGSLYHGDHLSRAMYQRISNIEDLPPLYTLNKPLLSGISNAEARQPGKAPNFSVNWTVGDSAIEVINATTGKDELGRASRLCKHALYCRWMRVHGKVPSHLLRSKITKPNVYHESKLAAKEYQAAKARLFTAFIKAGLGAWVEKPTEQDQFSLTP
# [2] = test system: T2, hADAR2-D E488Q E488Q (human), P78563-2; test: EMSA; conditions: N12 of top = 8-azanebularine; EMSA: 20 mM Tris-HCl pH 7-7.1, 6% glycerol, 0.5 mM DTT, 60 mM KCl, 20 mM NaCl, 0.1 mM 2-mercaptoethanol, 1.5 mM EDTA, 0.003% NP-40, 160 U/ml RNasin, 100 ug/ml …
# T2 sequence: T1 sequence with E190Q
sequence,measurement,setting,value
UUCCCCACAUUNGACGUUCAGU / ACUGAACCACCAAUGUGGGGAA [(d) 8-azaN],Kd,[1]; N12 of top = 8-azanebularine,30 nM
UUCCCCACAUUNGACGUUCAGU / ACUGAACGUCCAAUGUGGGGAA [(j) 8-azaN],Kd,[1]; N12 of top = 8-azanebularine,10 nM
CAUUANGGUGGGUGGAAUAGUAUAACA / UGUUAUAGUAUCCCACCUACCCUGAUG [(e) GluR B R/G 8-azaN],Kd,[1]; N6 of top = 8-azanebularine,> 3200 nM
CCCCACAUUNGACGUUCAGUUAGUACCACCAAUGUGGGG [(c) 8-azaN],Kd,[1]; N10 = 8-azanebularine,310 nM
UUCCCCACAUUNGACGUUCAGU / ACUGAACCACCAAUGTGGGGAA [(f) 8-azaN],Kd,"[1]; N12 of top = 8-azanebularine, bottom nt 16-22 2'-deoxy",114 nM
UUCCCCACAUUNGACGUUCAGU / ACUGAACCACCAATGUGGGGAA [(h) 8-azaN],Kd,"[1]; N12 of top = 8-azanebularine, bottom nt 8-15 2'-deoxy",342 nM
UUCCCCACAUUNGACGUUCAGUUAGUACCACCAAUGUGGGGAA [(b) 8-azaN],Kd,[1]; N12 = 8-azanebularine,27 nM
UUCCCCACAUUNGACGUUCAGU / ACTGAACCACCAAUGUGGGGAA [(g) 8-azaN],Kd,"[1]; N12 of top = 8-azanebularine, bottom nt 1-7 2'-deoxy",99 nM
UUCCCCACAUUNGACGUUCAGU / ACUGAACGACCAAUGUGGGGAA [(i) 8-azaN],Kd,[2],< 5 nM
same,Kd,[1]; N12 of top = 8-azanebularine,15 nM

# — PMC4333395
